Results as given in patent publication US20060258000A1, “Use of steady-state oxygen gradients to modulate animal cell functions” (priority 2003, published 2006).

Protocol for CYP2B: Primary rat hepatocytes from 6-well plates or chamber slides were lysed and scraped in SDS buffered (10 mM Tris/HCl (ph 7.4), 0.1% SDS). Samples were added to microcentrifuge tubes with 5 μl of PMSF, homogenized with a pestle, and centrifuged at 16,200 g for 5 minutes. Total protein content in the supernatant was determined using the DC protein assay (Bio-Rad, Hercules, Calif.) and used to normalize sample loading. Samples prepared in sample buffer were loaded (10-20 μg/well) for electrophoresis on a 10% polyacrylamide gel. After overnight transfer on to a PVDF membrane, blots were incubated with a blocking buffered (20 mM Tris-Cl (pH 7.4), 500 mM NaCl, 0.1% Tween 20, and 5% (w/v) milk powder) and washed with buffer without milk powder, incubation for 1 h with primary antibody against rat PEPCK or rat CYP2B (Genset, Woburn, Mass.) was followed by washing and incubation with either anti-sheep (PEPCK) or anti-goat (CYP2B) HRP-conjugated secondary antibody for 45 minutes. After washing, the Pierce SuperSignal chemiluminescence reagent was used for detection. All electrophoresis gels were run with molecular mass markers to verify PEPCK bands (67 kDa) or CYP2B1/2 bands (56 kDa). Optical density measurements were obtained using scanned blot images with 1d gelscan software (Metamorph).

B1: epidermal growth factor (protein, UniProt P01133 23-1207, looked up)
Pro-epidermal growth factor: PQHWSCPEGTLAGNGNSTCVGPAPFLIFSHGNSIFRIDTEGTNYEQLVVDAGVSVIMDFHYNEKRIYWVDLERQLLQRVFLNGSRQERVCNIEKNVSGMAINWINEEVIWSNQQEGIITVTDMKGNNSHILLSALKYPANVAVDPVERFIFWSSEVAGSLYRADLDGVGVKALLETSEKITAVSLDVLDKRLFWIQYNREGSNSLICSCDYDGGSVHISKHPTQHNLFAMSLFGDRIFYSTWKMKTIWIANKHTGKDMVRINLHSSFVPLGELKVVHPLAQPKAEDDTWEPEQKLCKLRKGNCSSTVCGQDLQSHLCMCAEGYALSRDRKYCEDVNECAFWNHGCTLGCKNTPGSYYCTCPVGFVLLPDGKRCHQLVSCPRNVSECSHDCVLTSEGPLCFCPEGSVLERDGKTCSGCSSPDNGGCSQLCVPLSPVSWECDCFPGYDLQLDEKSCAASGPQPFLLFANSQDIRHMHFDGTDYGTLLSQQMGMVYALDHDPVENKIYFAHTALKWIERANMDGSQRERLIEEGVDVPEGLAVDWIGRRFYWTDRGKSLIGRSDLNGKRSKIITKENISQPRGIAVHPMAKRLFWTDTGINPRIESSSLQGLGRLVIASSDLIWPSGITIDFLTDKLYWCDAKQSVIEMANLDGSKRRRLTQNDVGHPFAVAVFEDYVWFSDWAMPSVMRVNKRTGKDRVRLQGSMLKPSSLVVVHPLAKPGADPCLYQNGGCEHICKKRLGTAWCSCREGFMKASDGKTCLALDGHQLLAGGEVDLKNQVTPLDILSKTRVSEDNITESQHMLVAEIMVSDQDDCAPVGCSMYARCISEGEDATCQCLKGFAGDGKLCSDIDECEMGVPVCPPASSKCINTEGGYVCRCSEGYQGDGIHCLDIDECQLGEHSCGENASCTNTEGGYTCMCAGRLSEPGLICPDSTPPPHLREDDHHYSVRNSDSECPLSHDGYCLHDGVCMYIEALDKYACNCVVGYIGERCQYRDLKWWELRHAGHGQQQKVIVVAVCVVVLVMLLLLSLWGAHYYRTQKLLSKNPKNPYEESSRDVRSRRPADTEDGMSSCPQPWFVVIKEHQDLKNGGQPVAGEDGQAADGSMQPTSWRQEPQLCGMGTEQGCWIPVSSDKGSCPQVMERSFHMPSYGTQTLEGGVEKPHSLLSANPLWQQRALDPPHQMELTQ
modifications: Pro-epidermal growth factor
- Effect of EGF on DEX-induced CYP2B spatial distribution (CYP2B): significant shift in CYP2B spatial distribution was noted from inlet regions to the outlet
- Effect of EGF on DEX-induced CYP3A induction (CYP3A): remained uniform
